Each block holds one binder with its values, some of them ahead of it.
Columns and labels:
[1] = target: T1, Methanocaldococcus jannaschii RecJ2 (MJ0831) (Methanocaldococcus jannaschii (strain …, UniProt Q58241)); assay: Ni-NTA pulldown (co-purification)
T1 chain: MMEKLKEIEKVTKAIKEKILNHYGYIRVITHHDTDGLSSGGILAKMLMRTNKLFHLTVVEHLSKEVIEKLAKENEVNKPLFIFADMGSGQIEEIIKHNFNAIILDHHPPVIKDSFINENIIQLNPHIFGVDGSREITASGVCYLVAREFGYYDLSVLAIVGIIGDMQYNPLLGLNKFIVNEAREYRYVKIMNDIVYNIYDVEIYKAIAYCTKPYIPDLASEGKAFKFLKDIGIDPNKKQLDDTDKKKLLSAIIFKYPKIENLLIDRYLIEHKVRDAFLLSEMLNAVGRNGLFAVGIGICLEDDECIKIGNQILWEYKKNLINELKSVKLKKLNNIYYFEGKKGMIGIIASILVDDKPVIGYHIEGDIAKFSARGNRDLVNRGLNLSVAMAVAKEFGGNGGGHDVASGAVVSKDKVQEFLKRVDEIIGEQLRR

[2] = target: T1, Methanocaldococcus jannaschii RecJ2 …; assay: gel filtration (Superdex 200); MST also negative

binding result [1]: no binding
B1: Methanocaldococcus jannaschii GINS (MJ0248), 6×His tag and sumo domain removed (protein)
chain: MRVFIIIIYFRCFSKDHKPYFVITMYESLKNYFFEEIKNDKLLKLPDDFYDDIREYIKNIKDDIELERVKYYFKELRKLRIYKALYLDNERENLLPEELNIIHAIENIVVELKIEETPEFKKPTEIDTPKPIYTINDIDVVKVDKNFPPFTDGTFIYDLNKNDVLSLDRKISHILEKHRIISRIGESYENPEES

binding result [2]: no binding
B2: Methanocaldococcus jannaschii GINS (MJ0248), tag state not stated (protein)
chain: B1 chain
